Data set [1] deals with T1, NEIL2 (rNEIL2) (UniProt Q969S2 1-332).
T1 sequence: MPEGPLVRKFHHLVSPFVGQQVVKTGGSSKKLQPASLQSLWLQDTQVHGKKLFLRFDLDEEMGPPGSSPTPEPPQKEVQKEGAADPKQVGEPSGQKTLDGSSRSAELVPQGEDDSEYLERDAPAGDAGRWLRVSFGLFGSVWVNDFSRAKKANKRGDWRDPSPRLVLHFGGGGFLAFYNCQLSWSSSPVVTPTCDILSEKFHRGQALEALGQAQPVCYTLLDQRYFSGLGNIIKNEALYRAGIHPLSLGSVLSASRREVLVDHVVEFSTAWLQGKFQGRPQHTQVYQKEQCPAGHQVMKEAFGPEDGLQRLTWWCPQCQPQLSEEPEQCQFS
Nature of the data set: EMSA; 1 nM RNA, no yeast tRNA; Hill 2.428. As to conditions: protein: recombinant; tags: C-terminal 6xHis; label: 32P end label. (In general: A gel shift assay detects complexes by their altered migration in electrophoresis.)

The target in data set [2] is T1, NEIL2 (rNEIL2). Nature of the data set: EMSA. As to conditions: protein: recombinant; tags: C-terminal 6xHis; chain copies: 12; label: 32P end label; natively folded, minor misfolded band.
Data set [3] has as its target T1, NEIL2 (rNEIL2). Nature of the data set: EMSA; 1 nM RNA, compact band at 75 nM NEIL2; Kd not measurable (aggregates). The following applies: protein: recombinant; tags: C-terminal 6xHis; chain copies: 12; label: 32P end label; folded; partly aggregates.

The values that follow come from PMC10710473, “The DNA glycosylase NEIL2 is protective during SARS-CoV-2 infection”.

One may read the Kd as the free concentration of one partner at which half of the binding sites on the other are occupied at equilibrium, for simple one-to-one binding.

Turning to UCCCCAUGUGAUUUUAAUAGCUUCUUAGGAGAAUGACA (mixed, DNA bases may be present) [CoV-2 3'-UTR ZnF-site (38-mer)], the Kd with NEIL2 (rNEIL2) [1] came to 77.2 nM.

B1: CoV-2 5'-UTR RNA (full length, 297 nt) (structured_RNA)
RNA: AUUAAAGGUUUAUACCUUCCCAGGUAACAAACCAACCAACUUUCGAUCUCUUGUAGAUCUGUUCUCUAAACGAACUUUAAAAUCUGUGUGGCUGUCACUCGGCUGCAUGCUUAGUGCACUCACGCAGUAUAAUUAAUAACUAAUUACUGUCGUUGACAGGACACGAGUAACUCGUCUAUCUUCUGCAGGCUGCUUACGGUUUCGUCCGUGUUGCAGCCGAUCAUCAGCACAUCUAGGUUUUGUCCGGGUGUGACCGAAAGGUAAGAUGGAGAGCCUUGUCCCUGGUUUCAACGAGAA
Turning to B1, the Kd in the data set with NEIL2 (rNEIL2) [2] amounted to 44.2 nM.

B2: CoV-2 3'-UTR RNA (full length, 200 nt) (structured_RNA)
RNA: CAAUCUUUAAUCAGUGUGUAACAUUAGGGAGGACUUGAAAGAGCCACCACAUUUUCACCGAGGCCACGCGGAGUACGAUCGAGUGUACAGUGAACAAUGCUAGGGAGAGCUGCCUAUAUGGAAGAGCCCUAAUGUGUAAAAUUAAUUUUAGUAGUGCUAUCCCCAUGUGAUUUUAAUAGCUUCUUAGGAGAAUGACAAAA
With B2, the binding result with NEIL2 (rNEIL2) [3] was “binds”.
